Substrate in this data set: N=C(N)NC(=N)N
Description: purified protein. The class given is biochemical, Pseudomonas sp. KHPS1. To be noted: 100 mM potassium phosphate, pH 8.0, 25 °C, 0.5 mM NADH, 0.5 mM 2-oxoglutarate, 1.5 U GDH.

B1: BguH (Pseudomonas sp. KHPS1) (protein)
chain: MSERNHEKGMLLAIEQALKAVASGEPPFGVVILDAQGELVAATHDEVNTRGDMSAHAETLAVRAACQVRGPSLEGCFLYTTCEPCPMCFTTAWLARIGGVVYATTMDEVHKILGDAQRELRVPVTQMNDLSGEPVTLVKGVLRDRCLQLFREHAATLATTK
notes: N-terminal His6 tag (pET28b), E. coli codon-optimised synthetic gene, E. coli BL21(DE3)-RIPL host
B1: the Michaelis constant (Km) (as a rule, the concentration of substrate that gives half-maximal velocity) amounted to 620 ± 160 µM and the catalytic constant (kcat) (usually the maximal rate divided by the concentration of active sites) worked out at 8.1 ± 0.8 s⁻¹.

The values are drawn from PMC11647477, “Biochemical and genomic evidence for converging metabolic routes of metformin and biguanide breakdown in environmental Pseudomonads” (The Journal of Biological Chemistry, 2024).
